Tests used:
[1] = target: T1, mouse FcγRI on macrophages (mouse, UniProt P26151 25-404); assay: two-color flow cytometry on mouse peritoneal macrophages (FcγRIIb-/-), FITC-2C10 detection
T1 construct: whole, on cells; The receptor is assigned by using macrophages from knockout mice; Other receptors may be present on these cells; also called FcγRI on mouse macrophages (from FcγRIIb-/- mice)
T1 sequence (looked up): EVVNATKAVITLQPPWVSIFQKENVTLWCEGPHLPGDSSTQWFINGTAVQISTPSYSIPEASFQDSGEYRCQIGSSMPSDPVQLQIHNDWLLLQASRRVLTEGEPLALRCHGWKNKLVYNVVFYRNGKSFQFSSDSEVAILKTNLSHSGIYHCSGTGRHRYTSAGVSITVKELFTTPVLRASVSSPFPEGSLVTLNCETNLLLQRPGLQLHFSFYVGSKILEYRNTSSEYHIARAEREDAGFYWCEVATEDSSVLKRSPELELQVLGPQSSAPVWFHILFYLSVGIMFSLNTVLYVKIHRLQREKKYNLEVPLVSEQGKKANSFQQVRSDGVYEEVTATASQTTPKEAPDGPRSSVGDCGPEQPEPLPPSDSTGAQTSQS

[2] = target: T2, human FcγRI (human, UniProt P12314 16-292, limits assumed); assay: surface plasmon resonance, human FcγR
T2 construct: also called CD64
T2 sequence (P12314 16-292 limits assumed): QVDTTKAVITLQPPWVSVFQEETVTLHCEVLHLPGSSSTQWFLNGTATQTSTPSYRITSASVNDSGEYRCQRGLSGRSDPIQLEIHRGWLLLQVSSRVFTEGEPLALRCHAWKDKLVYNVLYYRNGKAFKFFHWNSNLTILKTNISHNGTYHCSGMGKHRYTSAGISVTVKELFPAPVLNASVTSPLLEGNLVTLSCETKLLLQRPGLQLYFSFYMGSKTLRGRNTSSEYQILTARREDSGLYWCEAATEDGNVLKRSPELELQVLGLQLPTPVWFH

B1: Y175L CRP (recombinant mutant C-reactive protein in which tyrosine 175 is replaced by leucine) (ligand)
chain: QTDMSRKAFVFPKESDTSYVSLKAPLTKPLKAFTVCLHFYTELSSTRGYSIFSYATKRQDNEILIFWSKDIGYSFTVGGSEILFEVPEVTVAPVHICTSWESASGIVEFWVDGKPRVRKSLKKGYTVGAEASIILGQEQDSFGGNFEGSQSLVGDIGNVNMWDFVLSPDEINTILLGGPFSPNVLNWRALKYEVQGEVFTKPQLWP
notes: also called CRP mutant Y175L; recombinant mutant CRP (Y175L)
- binding result [1]: binds
- binding result [2]: binds

From patent US20110142812A1 (STC UNM, published 2011)
